Experiments:
Test in all cases: cell_activity
[1] = system: ZFN SBS 48641 (mouse albumin intron 1) (synthetic); conditions: as pair with 31523; mouse liver in vivo, males 4 months (females 45.69; 1 month 46.67 male, 34.05 female); deep sequencing
[2] = system: ZFN SBS 31523 (mouse albumin intron 1) (synthetic); conditions: as pair with 48641; mouse liver in vivo, males 4 months (females 45.69; 1 month 46.67 male, 34.05 female); deep sequencing
[3] = system: ZFN pair SBS 47171 / SBS 47931 (human albumin) (synthetic); conditions: HepG2 cells with IDS donor, 3 days (62.27 with IDUA donor); MiSeq

CTGAAGGTGGCAATGGTTCCTCTCTGCT (double strand) [48641 target site]
activity [1]: 55.6 % indels

TTTCCTGTAACGATCGGGAACTGGCATC (double strand) [31523 target site]
activity [2]: 55.6 % indels

human albumin locus ZFN site
activity [3]: 59.3 % indels

From patent US20170202931
